Results published in paper PMC5906663.

Experiments:
[1] = biological target: human NCAM Ig1-2 Fc fusion protein (human); assay: pull-down; 1 ug of neurocan (human or mouse) incubated with 1 ug of Fc protein in TBS for 1 hr at 37 C; Fc proteins pulled down with Protein A/G Sepharose beads; immunoblot, densitometry
[2] = biological target: human NCAM Ig1 Fc fusion protein (human); assay: as above
[3] = biological target: human NCAM Ig1-3 Fc fusion protein (human); assay: as above
[4] = biological target: human NCAM Ig2 Fc fusion protein (human); assay: as above
[5] = biological target: NCAM R156E mutant expressed in HEK293T cells (UniProt P13591); assay: co-IP; lysates (1 mg, RIPA buffer) of HEK293T cells transfected with NCAM140, NCAM mutants or EphA3, incubated with recombinant neurocan; precipitated with antibodies against NCAM (H-300) or EphA3 (C-19) and Protein A/G agarose; immunoblot for neurocan, densitometry
[6] = biological target: NCAM K162D mutant expressed in HEK293T cells (UniProt P13591); assay: as above
[7] = biological target: human NCAM Ig1-5/FN1-2 Fc fusion protein (full-length NCAM-EC) (human) (UniProt P13591); assay: pull-down; 1 ug of neurocan (human or mouse) incubated with 1 ug of Fc protein in TBS for 1 hr at 37 C; Fc proteins pulled down with Protein A/G Sepharose beads; immunoblot, densitometry

Substance | neurocan bound, percent of the amount bound to NCAM-EC-Fc [1] | neurocan bound, percent of the amount bound to NCAM-EC-Fc [2] | neurocan bound, percent of the amount bound to NCAM-EC-Fc [3] | neurocan bound, percent of the amount bound to NCAM-EC-Fc [4] | neurocan co-immunoprecipitated, percent of WT NCAM [5] | neurocan co-immunoprecipitated, percent of WT NCAM [6] | neurocan bound to NCAM-EC-Fc, percent of the human neurocan level [7]
recombinant human neurocan (full-length protein) (from UniProt O14594 23-1321) (natural protein) | 33% | 23% | 50% | 129% | 32 % of WT | 41 % of WT | 
recombinant mouse neurocan Glu23-637 (a truncation lacking the sushi domain) (from UniProt P55066 23-637) (domain or fragment) |  |  |  |  |  |  | 93%
